Test results published in publication PMC3843635 (Protein Science : A Publication of the Protein Society, 2013).
Like-named read-outs stand apart in the source and are kept apart here. Where a SMILES comes first, the peptide text is derived from it. The star is where a group is joined. Bz = O=C(c1ccccc1)*

Assays:
[1] = system: Keap1-Nrf2 protein-protein interaction; conditions: read-out: FP IC50 ± SE; previously described FP assay; cited from earlier work
[2] = biological target: Keap1-Nrf2 protein-protein interaction (CFP-Nrf2 and YFP-Kelch) (Homo sapiens, UniProt Q14145); experiment: FRET competition assay; format: binding; conditions: for binding activity relative to peptide 1: FRET competition, 7-mer peptides; for effect on association between CFP-Nrf2 and YFP-Kelch (FRET efficiency): unlabeled 16-mer peptides, competition assay, Fig. 5
Sequence of Keap1-Nrf2 protein-protein interaction (CFP-Nrf2 and YFP-Kelch) (Q14145 321-609): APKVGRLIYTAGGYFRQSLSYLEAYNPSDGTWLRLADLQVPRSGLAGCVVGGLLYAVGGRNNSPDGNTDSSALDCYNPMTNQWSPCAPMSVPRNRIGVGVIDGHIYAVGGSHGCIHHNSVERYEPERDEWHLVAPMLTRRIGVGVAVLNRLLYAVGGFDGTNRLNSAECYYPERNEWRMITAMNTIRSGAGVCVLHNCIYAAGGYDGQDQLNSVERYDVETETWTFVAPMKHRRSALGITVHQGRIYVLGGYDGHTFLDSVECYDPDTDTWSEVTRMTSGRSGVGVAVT

[3] = biological target: T1, YFP conjugated to the human Keap1 Kelch domain (YFP-Kelch) (human, UniProt Q14145 321-609); experiment: FRET or BRET
T1 sequence (Q14145 321-609): as above

[4] = biological target: T1, YFP conjugated to the human Keap1 Kelch …; experiment: FRET or BRET; remark: listed apart in the source
[5] = biological target: T1, YFP conjugated to the human Keap1 Kelch …; experiment: FRET or BRET; remark: listed apart in the source

| Molecule | effect on association between CFP-Nrf2 and YFP-Kelch (FRET efficiency) [2] | Kd [3] [nM] | further results |
| --- | --- | --- | --- |
| CC(=O)N[C@@H](CC(=O)O)C(=O)N1CCC[C@H]1C(=O)N[C@@H](CCC(=O)O)C(=O)N[C@H](C(=O)NCC(=O)N[C@@H](CCC(=O)O)C(=O)N[C@@H](Cc1ccccc1)C(=O)O)[C@@H](C)O [Peptide 3, Ac-DPETGEF-OH] (Ac-DPETGEF-OH) |  |  | IC50 [1]: 250 ± 40 nM; binding activity relative to peptide 1 [2]: increased binding activity |
| E79Q (AFFAQLQLDEQTGEFL) [Peptide E79Q, reference compound] | unable to perturb the association |  |  |
| E82D (AFFAQLQLDEETGDFL) [Peptide E82D, reference compound] | unable to perturb the association |  |  |
| CC(C)C[C@H](NC(=O)[C@H](CCC(=O)O)NC(=O)CNC(=O)[C@@H](NC(=O)[C@H](CCC(=O)O)NC(=O)[C@@H]1CCCN1C(=O)[C@H](CC(=O)O)NC(=O)c1ccccc1)[C@@H](C)O)C(=O)O [Peptide 4, Ph-DPETGEL-OH] (Bz-DPETGEL-OH; N-terminus assumed) |  |  | IC50 [1]: 160 ± 20 nM; binding activity relative to peptide 1 [2]: increased binding activity |
| E78P/F83L (AFFAQLQLDPETGELL) | dose-dependent reduction in FE |  |  |
| T80K (AFFAQLQLDEEKGEFL) [Peptide T80K, reference compound] | unable to perturb the association |  |  |
| AFFAQLQLDPETGELL [CFP-E78P/F83L] |  | 40 |  |
| Ac-DPETGEF-OH [peptide 3, Ac-DPETGEF-OH] |  |  | IC50 [4]: 330 nM |
| AFFAQLQLDEETGDFL [CFP-E82D] |  | > 100 |  |
| AFFAQLQLDPETGELL [E78P/F83L unlabeled 16-mer peptide] |  |  | IC50 [5]: 80 nM |
| AFFAQLQLDEEKGEFL [CFP-T80K] |  | > 100 |  |
| AFFAQLQLDEQTGEFL [CFP-E79Q] |  | > 100 |  |
